Molecular target: HER2 (human (endogenous in BT-474, SK-BR-3, MDA-MB-361)) (UniProt P04626)
Experiment: flow cytometry on cells; cell-based saturation assay: 3x10^5 BT-474 cells with increasing concentration of DyLight-488-labeled Affibody in PBS with 2% FBS, on ice, one hour; non-specific binding subtracted; three independent experiments

- Kd: 3.66 nM
Substance: Z_(HER2)-GS-Cys labeled with DyLight-488 (designed binder)

— publication PMC3401287
